The test system of series [1] is Pseudomonas aeruginosa. Put plainly: Inhibition of Pseudomonas aeruginosa Metallo-beta-lactamase assessed as decrease in biapenem resistance rate at 32 ug/ml.
The test system of series [2] is Pseudomonas aeruginosa. Briefly: Inhibition of Pseudomonas aeruginosa Metallo-beta-lactamase assessed as potentiation of piperacillin antimicrobial activity.
The test system of series [3] is Pseudomonas aeruginosa. Briefly: Inhibition of Pseudomonas aeruginosa Metallo-beta-lactamase assessed as potentiation of aztreonam antimicrobial activity.
Series [4] deals with Pseudomonas aeruginosa. Put plainly: Inhibition of Pseudomonas aeruginosa Metallo-beta-lactamase assessed as increase in biapenem susceptible rate at 32 ug/ml. Set-up: scale not given: the % may be the effect or the level left.
Series [5] deals with C[C@@H](O)[C@H]1C(=O)N2C(C(=O)[O-])=C(SC3Cn4cnc[n+]4C3)[C@H](C)[C@H]12. Briefly: (§1) Ratio of Kcat to Km for Pseudomonas aeruginosa beta-lactamaseVIM-2 by UV spectrophotometric analysis.
The subject of series [6] is C[C@@H](O)[C@H]1C(=O)N2C(C(=O)O)=C(SCCNC=N)C[C@H]12. The description is as §1.
The test system of series [7] is C[C@@H](O)[C@H]1C(=O)N2C(C(=O)[O-])=C(SC3Cn4cnc[n+]4C3)[C@H](C)[C@H]12. Briefly: (§2) Activity of Pseudomonas aeruginosa beta-lactamase VIM-2 by UV spectrophotometric analysis.
Series [8] concerns C[C@@H](O)[C@H]1C(=O)N2C(C(=O)O)=C(SCCNC=N)C[C@H]12. Described as §2.

Calls of active or inactive are those of the source. The calls are words filed in the database; no cut-off is given here.

The results in this text go back to ChEMBL document CHEMBL1671717, “In vitro potentiation of carbapenems with ME1071, a novel metallo-beta-lactamase inhibitor, against metallo-beta-lactamase- producing Pseudomonas aeruginosa clinical isolates” (Antimicrob Agents Chemother, 2010).

As usually defined, the inhibition is the relative decrease from the control value, in per cent. With `CC/C(C(=O)O)=C(\CC)C(=O)O`, the inhibition with Pseudomonas aeruginosa [1] came out at 40%. Besides, the outcome with Pseudomonas aeruginosa [2] and with Pseudomonas aeruginosa [3] was inactive. For the same compound, the Activity in the series with Pseudomonas aeruginosa [4] came out at 22%.
What is called kcat/Km is the second-order rate constant that governs catalysis at low substrate concentration. The term Km denotes the substrate concentration at which the rate is half of its maximum. In general, kcat refers to the number of substrate molecules converted per active site and unit of time at saturation. As to “Beta-lactamase VIM-2 (Pseudomonas aeruginosa) (from UniProt Q9K2N0)”, the kcat/Km in series [5] worked out at 500000 M⁻¹ s⁻¹; in series [6], 1.2e+07 M⁻¹ s⁻¹. For the same compound, the Michaelis constant (Km) in series [7] is 24.7 µM; in series [8] it was 8.5 µM. Also, the kcat in series [7] came out at 12.4 s⁻¹; in series [8], 98.9 s⁻¹.
